Reference: patent US10766960 (dated 2020)
Residue numbers refer to the chain shown, from its start.

B1: H240-FA030/H240-FB065/L73-k0 (antibody)
chain 1: QDQLVQSGAEVKKPGASVKVSCKASGFNIKDTYIQWVRQAPGQGLEWMGRIDPLRKQTKYREKFEGRVTITADTSTNTAYMELSSLRSEDTAVYYCVRSGREFDYWGQGTLVTVSSASTKGPSVFPLAPSSKSTSGGTAALGCLVKDYFPEPVTVSWNSGALTSGVHTFPAVLQSSGLYSLSSVVTVPSSSLGTKTYTCNVNHKPSNTKVDKKVEPKSCDKTHTCPPCPAPEYYWGPSVFLFPPKPKDTLMISRTPEVTCVVVDVSDEEPKVKFNWYVDGVEVHNAKTKPREEQYNATYRVVSVLTVLHQDWLNGKEYKCKVSNKALPAPIEKTISKAKGQPREPQVYTLPPSRKEMTKNQVSLTCLVKGFYPSDIAVEWESNGQPENNYKTTPPVLDSDGSFFLYSKLTVDKSRWQQGNVFSCSVMHEALHNRYTQKSLSLSP
chain 2: QDQLVQSGAEVKKPGASVKVSCKASGFNIKDTYIQWVRQAPGQGLEWMGRIDPLRKQTKYREKFEGRVTITADTSTNTAYMELSSLRSEDTAVYYCVRSGREFDYWGQGTLVTVSSASTKGPSVFPLAPSSKSTSESTAALGCLVKDYFPEPVTVSWNSGALTSGVHTFPAVLQSSGLYSLSSVVTVPSSNFGTQTYTCNVDHKPSNTKVDKTVEPKSCDKTHTCPPCPAPELLGGPSVFLFPPKPKDTLMISRTPEVTCVVVDVSHEEPEVQFNWYVDGVEVHNAETKPREEQYNSTYRVVSVLTVLHQDWLNGKEYKCKVSNDALPMPIEETISKAKGQPREPQVYTLPPSREEMTKNQVSLTCLVKGFYPSDIAVEWESNGQPENNYKTTPPVLDSDGSFFLYSKLTVDKSRWQQGNVFSCSVMHEALHNHYTQESLSLSP
chain 3: DIQMTQSPSSLSASVGDRVTITCRASQDIHKYIAWYQQKPGQAPRLLIQYTSTLQPGVPSRFSGSGSGTDYTFTISSLQPEDIATYYCLQYEQLRTFGGGTKVEIKRTVAAPSVFIFPPSDEQLKSGTASVVCLLNNFYPREAKVQWKVDNALQSGNSQESVTEQDSKDSTYSLSSTLTLSKADYEKHKVYACEVTHQGLSSPVTKSFNRGEC
B2: H240-FA030/H240-FB083/L73-k0 (antibody)
chain 1: B1 chain 1
chain 2: B1 chain 2 with K146E
chain 3: B1 chain 3
B3: H240-FA012/H240-FB001/L73-k0 (antibody)
chain 1: B1 chain 1 with T198I
chain 2: B1 chain 2 with E136G, S137G, N191S, F192L, T198I, D202N, T213K, E287K
chain 3: B1 chain 3
B4: H240-FA009/H240-FB017/L73-k0 (antibody)
chain 1: B1 chain 1 with T198I, K271E
chain 2: B1 chain 2 with S137G, N191S, F192L, T198I, T213K, E287K
chain 3: B1 chain 3
B5: H240-FA012/H240-FB056/L73-k0 (antibody)
chain 1: B1 chain 1 with T198I
chain 2: B1 chain 2 with S137G, K146E, N191S, F192L, T198I, T213K
chain 3: B1 chain 3
B6: H240-FA009/H240-FB021/L73-k0 (antibody)
chain 1: B1 chain 1 with T198I, K271E
chain 2: B1 chain 2 with E136G, S137G, N191S, F192L, T198I, D202N, T213K
chain 3: B1 chain 3
B7: H240-FA020/H240-FB082/L73-k0 (antibody)
chain 1: B1 chain 1 with K271E, M357K
chain 2: B1 chain 2 with E136G, S137E, K146E, N191S, F192L, T198I, D202N, T213K, N383E
chain 3: B1 chain 3

Each binder was assayed against FcgRIIIa F (human, UniProt P08637) (assay: SPR).
FcgRIIIa F, sequence (P08637 17-208): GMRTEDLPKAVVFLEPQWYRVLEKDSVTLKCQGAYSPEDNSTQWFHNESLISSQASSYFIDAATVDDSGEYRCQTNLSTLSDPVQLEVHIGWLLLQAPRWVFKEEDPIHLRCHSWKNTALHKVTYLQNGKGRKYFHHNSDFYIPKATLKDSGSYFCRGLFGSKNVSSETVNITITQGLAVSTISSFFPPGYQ

Row | Binder | Kd [nM]
1 | B1 | 4.6
2 | B2 | 3.9
3 | B3 | 6.3
4 | B4 | 3
5 | B5 | 5
6 | B6 | 3.7
7 | B7 | 3.4

Target: T1, FcgRIIb (human, UniProt P31994)
T1 chain: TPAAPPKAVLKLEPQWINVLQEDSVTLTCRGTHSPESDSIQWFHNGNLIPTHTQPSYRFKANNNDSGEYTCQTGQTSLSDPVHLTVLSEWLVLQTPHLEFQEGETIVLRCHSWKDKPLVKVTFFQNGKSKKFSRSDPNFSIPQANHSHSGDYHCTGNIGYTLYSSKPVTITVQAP
Experiment: SPR

Row | Binder | Kd [nM]
8 | B1 | 2400
9 | B2 | 1500
10 | B3 | 1700
11 | B4 | 1400
12 | B5 | 1400
13 | B6 | 2200
14 | B7 | 1200

The binders below were run against FcgRIIIa V (human, UniProt P08637) (assay: SPR).
FcgRIIIa V, sequence (P08637 17-208 F176V): as the sequence (P08637 17-208) above, with F160V counted along it

Row | Binder | Kd [nM]
15 | B1 | 1.1
16 | B2 | 1.2
17 | B3 | 1.5
18 | B4 | 0.84
19 | B5 | 1.3
20 | B6 | 0.78
21 | B7 | 1.1

Target: T2, FcgRIIa R (human, UniProt P12318)
T2 chain: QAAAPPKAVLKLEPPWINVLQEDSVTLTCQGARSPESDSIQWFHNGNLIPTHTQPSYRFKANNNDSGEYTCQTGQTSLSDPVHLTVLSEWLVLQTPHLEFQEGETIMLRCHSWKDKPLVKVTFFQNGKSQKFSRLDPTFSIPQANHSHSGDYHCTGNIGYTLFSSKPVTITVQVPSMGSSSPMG
Experiment: SPR

Row | Binder | Kd [nM]
22 | B1 | 340
23 | B2 | 280
24 | B3 | 350
25 | B4 | 230
26 | B5 | 280
27 | B6 | 280
28 | B7 | 270

Target: T3, FcgRIIa H (human, UniProt P12318)
T3 chain: T2 chain with R134H
Experiment: SPR

Row | Binder | Kd [nM]
29 | B1 | 99
30 | B2 | 82
31 | B3 | 110
32 | B4 | 61
33 | B5 | 86
34 | B6 | 70
35 | B7 | 69

Target: T4, FcgRIa (human, UniProt P12314)
T4 chain: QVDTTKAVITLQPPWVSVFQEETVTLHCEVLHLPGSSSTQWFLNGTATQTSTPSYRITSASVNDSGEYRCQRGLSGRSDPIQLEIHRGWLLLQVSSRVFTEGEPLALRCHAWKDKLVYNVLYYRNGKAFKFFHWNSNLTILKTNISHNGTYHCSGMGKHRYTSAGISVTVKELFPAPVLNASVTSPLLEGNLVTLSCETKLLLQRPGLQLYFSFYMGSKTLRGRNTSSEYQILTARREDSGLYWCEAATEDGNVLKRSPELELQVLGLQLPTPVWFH
Experiment: SPR

Row | Binder | Kd [nM]
36 | B1 | 0.1
37 | B2 | 0.081
38 | B3 | 0.076
39 | B4 | 0.11
40 | B5 | 0.1
41 | B6 | 0.051
42 | B7 | 0.079
